Experimental findings from article PMC6736097 (Nucleic Acids Research, 2019) are described below.

First the molecules themselves.
B2: ILP1 split-YFP fusion for BiFC (ILP1-nYFP and ILP1-cYFP) (natural protein)
chain: MGSNRPKNFRRRGDDGGDEIDGKVATPSSKPTSTLSSSKPKTLSASAPKKKLLSFADDEEEEEDGAPRVTIKPKNGRDRVKSSSRLGVSGSSHRHSSTKERRPASSNVLPQAGSYSKEALLELQKNTRTLPYSRSSANAEPKVVLKGLIKPPQDHEQQSLKDVVKQVSDLDFDEEGEEEQHEDAFADQAAIIRAKKERMRQSRSAPAPDYISLDGGIVNHSAVEGVSDEDADFQGIFVGPRPQKDDKKGVFDFGDENPTAKETTTSSIYEDEDEEDKLWEEEQFKKGIGKRMDEGSHRTVTSNGIGVPLHSKQQTLPQQQPQMYAYHAGTPMPNVSVAPTIGPATSVDTLPMSQQAELAKKALKDNVKKLKESHAKTLSSLTKTDENLTASLMSITALESSLSAAGDKYVFMQKLRDFISVICDFMQNKGSLIEEIEDQMKELNEKHALSILERRIADNNDEMIELGAAVKAAMTVLNKHGSSSSVIAAATGAALAASTSIRQQMNQPVKLDEFGRDENLQKRREVEQRAAARQKRRARFENKRASAMEVDGPSLKIEGESSTDESDTETSAYKETRDSLLQCADKVFSDASEEYSQLSKVKARFERWKRDYSSTYRDAYMSLTVPSIFSPYVRLELLKWDPLHQDVDFFDMKWHGLLFDYGKPEDGDDFAPDDTDANLVPELVEKVAIPILHHQIVRCWDILSTRETRNAVAATSLVTNYVSASSEALAELFAAIRARLVEAIAAISVPTWDPLVLKAVPNTPQVAAYRFGTSVRLMRNICMWKDILALPVLENLALSDLLFGKVLPHVRSIASNIHDAVTRTERIVASLSGVWTGPSVTRTHSRPLQPLVDCTLTLRRILEKRLGSGLDDAETTGLARRLKRILVELHEHDHAREIVRTFNLKEAV

One assay addresses PRP43b-cYFP (Arabidopsis thaliana, UniProt O22899 1-729). The experiment in a line: split reporter.
In assay [1] the target is B2. The experiment in a line: split reporter.

Chain of PRP43b-cYFP (O22899 whole entry): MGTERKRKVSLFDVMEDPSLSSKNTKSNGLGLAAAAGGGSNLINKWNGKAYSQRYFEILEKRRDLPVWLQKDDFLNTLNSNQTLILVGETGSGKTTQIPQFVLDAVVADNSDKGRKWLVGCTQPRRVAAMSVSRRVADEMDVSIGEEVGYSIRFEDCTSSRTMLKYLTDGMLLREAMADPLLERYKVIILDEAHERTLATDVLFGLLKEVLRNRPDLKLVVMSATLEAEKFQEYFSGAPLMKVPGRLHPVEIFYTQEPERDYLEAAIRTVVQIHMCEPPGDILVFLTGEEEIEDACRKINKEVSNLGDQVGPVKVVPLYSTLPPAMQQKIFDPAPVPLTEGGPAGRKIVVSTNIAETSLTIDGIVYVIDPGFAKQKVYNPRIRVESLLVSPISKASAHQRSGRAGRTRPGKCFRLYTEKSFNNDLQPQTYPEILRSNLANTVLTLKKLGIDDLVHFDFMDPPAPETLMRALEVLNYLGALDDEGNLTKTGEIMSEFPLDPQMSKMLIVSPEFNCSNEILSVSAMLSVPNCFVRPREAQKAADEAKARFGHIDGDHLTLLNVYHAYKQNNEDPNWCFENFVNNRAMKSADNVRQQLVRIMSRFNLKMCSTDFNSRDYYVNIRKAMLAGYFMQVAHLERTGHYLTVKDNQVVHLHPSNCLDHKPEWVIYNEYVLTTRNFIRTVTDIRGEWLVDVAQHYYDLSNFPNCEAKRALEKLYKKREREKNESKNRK

B1: NTR1 split-YFP fusion for BiFC (NTR1-nYFP) (natural protein)
chain: not shown
In the case of B1, the “positive BiFC ratio (percent of protoplasts)” value with PRP43b-cYFP came out at 14.7%; in assay [1], 41.4%.

As to B2, in the assay with PRP43b-cYFP, the “positive BiFC ratio (percent of protoplasts)” value stood at 1.4%.
